Measured values: patent US20240101959A1, “USE OF IL-2R-BETA-GAMMA AGONIST PEPTIDES IN CELL MANUFACTURING” (MEDIKINE, INC., priority 2022, published 2024)
Positions of bridges follow the written chain, without caps; N, C: chain ends. No end group written: not given here.

T1: hu-IL-2Rβ subunit (human, UniProt P14784 27-240, limits assumed)
T1 construct: also called human interleukin-2 receptor subunit β; CD122
T1 sequence (looked up): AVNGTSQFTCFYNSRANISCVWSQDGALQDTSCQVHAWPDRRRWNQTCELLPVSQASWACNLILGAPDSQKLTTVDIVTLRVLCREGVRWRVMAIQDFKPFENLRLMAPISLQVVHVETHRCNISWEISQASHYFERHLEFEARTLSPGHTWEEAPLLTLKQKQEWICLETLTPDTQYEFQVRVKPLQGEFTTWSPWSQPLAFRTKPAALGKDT


Molecular target: T1, hu-IL-2Rβ subunit
Assay: phage ELISA competition assay

IC50 [µM] | Binder
< 100 | WFPCWLAQLGELCDKE [SEQ ID NO 351]
< 100 | MGTGWQNYCRYAQLGELCLL [SEQ ID NO 250]
< 100 | AHWSQPCWTAQLGELCDLDMGD [SEQ ID NO 245]
< 100 | RREWYPCWIAQVGELCDLPLI [SEQ ID NO 343]
< 100 | TGRWKPCWMAGLHELCDLEGFR [SEQ ID NO 98]
< 100 | VWFPCWFAQLGDLCDLDQDP [SEQ ID NO 348]
< 100 | HGRWFPCWMAQVGDLCDLEHSN [SEQ ID NO 346]
< 100 | WDGWECGMDHDGWVCEFWGE [SEQ ID NO 253]
< 100 | MLGEWLCEMDQLGYLCYLDHGD [SEQ ID NO 252]
< 100 | WYPCWIAQLGELCDLDAKGQRR [SEQ ID NO 337]
< 100 | RRWLPCWMAHVGELCDLELGN [SEQ ID NO 354]
< 100 | HGGVIGWYPCWMAKVGELCDLD (disulfide 10-19 (inferred)) [SEQ ID NO 358]
< 100 | SRFWQPCWMAQLGELCHLDPQM [SEQ ID NO 242]
< 100 | ETLGSVWYPCWIASIGELCDLD [SEQ ID NO 349]
< 100 | RSLRESWFPCWMAKLGDLCDLE [SEQ ID NO 365]
< 100 | WYPCWIARVGELCDME (disulfide 4-13 (inferred)) [SEQ ID NO 342]
< 100 | WYPCWIARVGELCDLE [SEQ ID NO 553]
< 100 | WHPCWLARVGDLCDLD [SEQ ID NO 366]
< 100 | WYSCWIAQLGELCDLDDMGDRV (disulfide 4-13 (inferred)) [SEQ ID NO 350]
< 100 | YWCWFARVGELCDLDDGGVPS [SEQ ID NO 355]
< 100 | WYSCWIAQIGELCDLE [SEQ ID NO 356]
< 100 | SHLWFPCWMAQLGELCDLEGGP [SEQ ID NO 353]
< 100 | WLPCWMAHLGDLCDLE [SEQ ID NO 362]

IC50 [µM] | Binder
< 100 | AVEFYPCWLARIGELCDLVEP [SEQ ID NO 340]
< 100 | WLPCWMAHLGQLCDLDLPGKSM [SEQ ID NO 96]
< 100 | EQRNRQWWPCWLARLGDLCDLD [SEQ ID NO 360]
< 100 | WYPCGVAQPGDLCDLE [SEQ ID NO 251]
< 100 | EGVFFPCWIARLGELCDLDHGL [SEQ ID NO 97]
< 100 | TGWWYPCWMAQLGELCDLQQT (disulfide 7-16 (inferred)) [SEQ ID NO 248]
< 100 | RPSWAPCWLAQVGELCDLDHPE (disulfide 7-16 (inferred)) [SEQ ID NO 363]
< 100 | WYPCSIALLGELCDLESVHEKS (disulfide 4-13 (inferred)) [SEQ ID NO 359]
< 100 | WYPCWIARVGELCDLEEGPVNR [SEQ ID NO 339]
< 100 | QTGSYPCWIAHLGELCDLEGSA [SEQ ID NO 247]
< 100 | HPVRYPCWVAQLGELCDLENGN [SEQ ID NO 246]
< 100 | QPAWLPCWLAQLGELCDLGTGA [SEQ ID NO 241]
< 100 | WLPCWIARLGDLCDLE [SEQ ID NO 80]
< 100 | STGWYPCWIAEFGELCDLVKPH [SEQ ID NO 244]
< 100 | MNPVGTFYPCWIAKLGELCDLQ [SEQ ID NO 357]
< 100 | RWPWYPCEIARIGELCDLEQAN [SEQ ID NO 344]
< 100 | ESKEPAFWPCWMAQLGDLCDLE [SEQ ID NO 364]
< 100 | TNNFYPCWLAKLGDLCDFDDLN (disulfide 7-16 (inferred)) [SEQ ID NO 338]
< 100 | AGDWLPCWMAELGELCDLEGPT [SEQ ID NO 94]
< 100 | WLPCWIASLGELCDLDTGKRQG [SEQ ID NO 95]
< 100 | YLNFNPCWTAQLGELCDLASGE [SEQ ID NO 243]
< 100 | SRSAGEYYPCWLAQLGELCDLA [SEQ ID NO 367]
< 100 | WYPCWLAKLGELCDLDRAEALP [SEQ ID NO 347]

IC50 [µM] | Binder
< 100 | FGAFYPCWKAQLGELCDLEPVT [SEQ ID NO 345]
< 100 | DLWQPCWMARLGELCDLKG [SEQ ID NO 249]
< 100 | WYPCWLAQLGDLCDLD [SEQ ID NO 87]
< 100 | WYPCWVAKLGELCDLE [SEQ ID NO 472]
< 100 | WYPCWIAKLGELCDLE [SEQ ID NO 142]
< 100 | WYPCWMAQLGELCDMD (disulfide 4-13 (inferred)) [SEQ ID NO 376]
< 100 | WYPCWMARLGELCDLE [SEQ ID NO 137]
< 100 | WYPCWVAQLGELCDLE [SEQ ID NO 462]
< 100 | WYPCWIAQLGELCDLV [SEQ ID NO 352]
< 100 | WYPCWIAQLGELCDLE [SEQ ID NO 148]
< 100 | WYPCWLAQLGELCDLD [SEQ ID NO 130]
< 100 | WYPCWLAHLGELCDLA [SEQ ID NO 395]
< 100 | WYPCWIAHLGELCDLE [SEQ ID NO 341]
< 100 | RYPCWIAQLGELCDLD [SEQ ID NO 387]
< 100 | WYPCWLAQLGELCDLD [SEQ ID NO 361]
< 100 | WYPCWLAQVGELCDLD [SEQ ID NO 554]
< 100 | WYPCWMARMGELCDLE [SEQ ID NO 384]
< 100 | WHPCWIAHLGELCDLE [SEQ ID NO 388]
< 100 | WHPCWIAQLGELCDLE [SEQ ID NO 147]
< 100 | WYPCWLAHLGELCDLE [SEQ ID NO 369]
< 100 | WYPCWMAHLGELCDLE [SEQ ID NO 474]
